Data published in US7390643B2, “Geranyl diphosphate synthase molecules, and nucleic acid molecules encoding same” (Washington State University Research Foundation, priority 2002, dated 2008).
Where “and” joins values, the source holds several entries; their conditions need not be identical. Equal values may be shown once.

How the values were obtained:
[1] = test system: CC(C)=CCOP(=O)(O)OP(=O)(O)O; experiment: purified protein, by the assay type; conditions: other: apparent; at saturating concentrations of IPP (212 mM [sic]); means ± SD of three determinations; 70.0 °C
Description: (§1) The assay procedures and methods for product analysis were similar to those previously described (C. Burke and R. Croteau, J. Biol. Chem. 277:3141-3149, 2002), except that for radio-GC a Raga (Raytest) radio-detector connected in-line to a Series 600 (Gow-Mac) chromatograph was employed with a 5% phenyl polysiloxane (ZB-5; Phenomenex) capillary column under hydrogen gas flow (70° C. for 5 min. followed by an 8° C. per min. ramp to 240° C. for 5 min).
(§2) Molecular weight determination and kinetic evaluation. […] For kinetic evaluation, the standard prenyltransferase assay was performed (C. Burke and R. Croteau, J. Biol. Chem. 277:3141-3149, 2002) but the reaction was terminated after 4 min. to ensure linearity in the rate measurements.
(§3) Kinetic characterization of the GPP synthases (SEQ ID NOS:12, 16, and 20).

[2] = test system: C=C(C)CCO[P@@](=O)(O)OP(=O)(O)O; experiment: purified protein, by the assay type; conditions: 70.0 °C; for kcat: other: IPP and DMAPP as co-substrates, MgCl2 cofactor; for Km: other: apparent, at saturating concentrations of DMAPP (350 mM [sic]), means ± SD of three determinations
Description: as §1, §2, §3

| Substance | Km [1] | kcat [2] | Km [2] |
| --- | --- | --- | --- |
| Grand fir (Abies grandis) geranyl diphosphate synthase AgGPPS1, N-terminally truncated (E88M), C-terminal His6 tag, SEQ ID NO: 16 (Abies grandis; E88M) | 163 ± 13 µM | 1.6 s⁻¹ | 44 ± 5 µM |
| Grand fir (Abies grandis) geranyl diphosphate synthase AgGPPS2, N-terminally truncated (E86M), C-terminal His6 tag, SEQ ID NO: 12 (Abies grandis; E86M) | 90 ± 1 µM | 1.8 s⁻¹ | 55 ± 4 µM |
| Grand fir (Abies grandis) geranyl diphosphate synthase AgGPPS3, N-terminally truncated (E92M), C-terminal His6 tag, SEQ ID NO: 20 (Abies grandis; E92M) | 82 ± 5 µM | 0.47 s⁻¹ and 0.5 ± 0.1 s⁻¹ | 44 ± 7 µM |
